Measured values from US20010029034A1.

Tests used:
[1] = system: His-tagged Cripto (a TGF-a family member)
[2] = system: T1, first Kunitz-type domain of the TFPI-3 protein (TFPI-3-1), His-tagged, expressed in E. coli
T1 sequence: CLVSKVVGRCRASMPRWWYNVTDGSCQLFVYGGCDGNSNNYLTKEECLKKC

Trypsin (Sigma) = assay: cell-based or functional assay

Row | trypsin activity inhibited, 5.00 dose of TFPI-3-1 (Trypsin (Sigma)) [%] | trypsin activity left against buffer only samples, 10 of TFPI-3-1, duplicate samples (Trypsin (Sigma)) [%] | trypsin activity left against the buffer-only control, 10.00 dose of TFPI-3-1 (Trypsin (Sigma)) [%] | Substance | trypsin activity on TAME substrate, same concentrations of Cripto as control [1] | trypsin activity on TAME substrate (absorbance at 247 nm), 1.25 dose of TFPI-3-1 [2] | trypsin activity on TAME substrate (absorbance at 247 nm), 2.50 dose of TFPI-3-1 [2]
1 |  |  |  | Trypsin (Sigma) | no trypsin inhibiting activity could be observed | did not appear to inhibit trypsin activity at 1.25 and 2.50 mg doses | did not appear to inhibit trypsin activity at 1.25 and 2.50 mg doses
2 | 60 | 7 | 13 | first Kunitz-type domain of the TFPI-3 protein (TFPI-3-1), His-tagged, expressed in E. coli (from UniProt O43291 38-88) |  |  | 
